Results from US20040171074A1, “Structures of substrate binding pockets of SCF complexes” (MOUNT SINAI HOSPITAL, priority 2002, published 2004).
Numbering of substitutions follows the chain as printed. In names and notes the source's numbering stands. Non-standard residues stand in square brackets, D forms with d. pT = C[C@@H](OP(=O)(O)O)[C@H](N)C(=O)O

B1: W426A: mutant cdc4 polypeptide (protein)
chain: MGSFPLAEFPLRDIPVPYSYRVSGGIASSGSVTALVTAAGTHRNSSTAKTVETEDGEEDIDEYQRKRAAGSGESTPERSDFKRVKHDNHKTLHPVNLQNTGAASVDNDGLHNLTDISNDAEKLLMSVDDGSAAPSTLSVNMGVASHNVAAPTTVNAATITGSDVSNNVNSATINNPMEEGALPLSPTASSPGTTTPLAKTTKTINNNNNIADLIESKDSIISPEYLSDEIFSAINNNLPHAYFKNLLFRLVANMDRSELSDLGTLIKDNLKRDLITSLPFEISLKIFNYLQFEDIINSLGVSQNWNKIIRKSTSLWKKLLISENFVSPKGFNSLNLKLSQKYPKLSQQDRLRLSFLENIFILKNWYNPKFVPQRTTLRGHMTSVITCLQFEDNYVITGADDKMIRVYDSINKKFLLQLSGHDGGVAALKYAHGGILVSGSTDRTVRVWDIKKGCCTHVFKGHNSTVRCLDIVEYKNIKYIVTGSRDNTLHVWKLPKESSVPDHGEEHDYPLVFHTPEENPYFVGVLRGHMASVRTVSGHGNIVVSGSYDNTLIVWDVAQMKCLYILSGHTDRIYSTIYDHERKRCISASMDTTIRIWDLENIWNNGECSYATNSASPCAKILGAMYTLQGHTALVGLLRLSDKFLVSAAADGSIRGWDANDYSRKFSYHHTNLSAITTFYVSDNILVSGSENQFNIYNLRSGKLVHANILKDADQIWSVNFKGKTLVAAVEKDGQSFLEILDFSKASKINYVSNPVNSSSSSLESISTSLGLTRTTIIP
B2: W717N/V384N: double mutant cdc4 polypeptide compromised for selection at P−1 (protein)
chain: B1 chain with V384N, A426W, W717N
B3: WT: wild type yeast Cdc4 F-box protein (protein, UniProt P07834 1-779, looked up)
Cell division control protein …: B1 chain with A426W

Key:
Cdc4 = target: T1, Cdc4 (Saccharomyces cerevisiae, UniProt P07834); details: cyclin E derived nine-residue CPD phosphopeptide binding Cdc4 (Nash et al., 2001); cited from earlier work
T1 sequence (P07834 1-779): B1 chain with A426W

cdc4Δ strain = test: plasmid shuffle assay: complementation of a cdc4Δ strain by CDC4 alleles; type: cell-based, yeast; details: viability of cdc4Δ strain on 5-FOA, 2 days at 30° C.
Outline: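 Mutant CDC4 alleles on TRP1 CEN plasmids were shuffled into cdc4Δ strain MT 1259 carrying wild-type CDC4 on a URA3 plasmid, with growth on 5-FOA for 2 days at 30° C. Survivors were transformed with GAL1-SIC1 or phosphosite mutants and plated on glucose or galactose, 2 days at 30° C.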

phospho-Sic1 = test: P-Sic1 pull down: in vitro capture of phospho-Sic1 on immobilized wild type or mutant Cdc4-GST-Skp1, anti-Sic1 immunoblot; type: binding, yeast; details: Sic1 phosphorylated with Cln2-Cdc28, captured onto GST-Skp1/Cdc4 resin, anti-Sic1 detection
Outline: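 Bacterial His6-Sic1 phosphorylated by Cln2-Cdc28 from Sf9 cells; 0.5 μg phospho-Sic1 incubated with 1 μg immobilized wild-type or mutant Cdc4(263-744)-GST-Skp1 at 4° C for 1 h, washed four times. Bound Sic1 detected by anti-Sic1 immunoblot after SDS-PAGE.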

Skp1 = target: T2, Skp1 (Saccharomyces cerevisiae, UniProt P52286); test: Skp1 binding in vitro (pull down); parameters: species or system yeast
T2 construct: GST (N); made in house; host or cells: bacteria
T2 sequence (P52286 2-194 limits assumed): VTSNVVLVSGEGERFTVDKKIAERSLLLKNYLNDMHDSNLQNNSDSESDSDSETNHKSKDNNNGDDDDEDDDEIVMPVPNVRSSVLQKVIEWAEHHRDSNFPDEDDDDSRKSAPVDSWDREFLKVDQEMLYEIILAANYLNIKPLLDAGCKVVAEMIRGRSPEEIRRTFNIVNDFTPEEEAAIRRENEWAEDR
Excerpt: In order to probe the functional importance of amino acid residues on the highly conserved peptide binding surface, a panel of Cdc4 mutants (both single and double mutant) were generated and tested each for its ability to bind phospho Sic1 and Skp1 in vitro using a pull down assay and for its ability to substitute for wt-cdc4 in vivo using a cell viability assay. Of 12 single site mutants tested, only Arg 467. Arg485Ala Arg534Ala, and Trp 426 abolished both cell viability in vivo and phosphoSic1 binding in vitro. Together, these residues compose most of the interaction surface with the pThr, Pro CPD core. […] Presumably in the context of the full SCF complex in vivo this mutant is sufficiently well behaved to bind phospho Sic1.

phospho-Sic1 isoforms [1] = test: IEF-2D gel analysis of Sic1 phospho-isoforms captured by wild type or mutant Cdc4-GST-Skp1; type: binding, yeast; details: pool of Sic1 phosphorylated on 1 to 9 sites
Procedure: Bacterially expressed His6-Sic1 was phosphorylated with Cln2-Cdc28 kinase purified from baculovirus infected Sf9 cells as described before (Nature paper). 1 ug of WT or mutant Cdc4-GST-Skp1, immoblized on GSH-Sepharose resin, was incubated with 0.5 ug phospho-Sic1 at 4 C for 1 h and washed 4 times. Captured complexes were resolved on SDS-PAGE and Sic1 visualized by anti-Sic1 Western blotting and ECL. For IEF-2D analysis, several Sic1 phosphorylation reactions were carried out for different time periods to obtain a spectrum of Sic1 that were phosphorylated at different numbers of its nine CDK sites. This pool of phospho-Sic1 (2.5 ug) was incubated with 5 μg of WT or mutant Cdc4-GST-Skp1 as described above. Different phosphorylation states of Sic1 were separated by denaturing isoelectric focusing (IEF)-2D gel electrophoresis and visualized by anti-Sic1 Western blotting and ECL. IEF was performed using pH 3-10NL Immobiline gel strips and IPGphore IEF system (Amersham pharmacia).
Cdc4 functional assays. CDC4 mutant alleles were assessed for complementation of a cdc4A strain in a plasmid shuffle assay (Nash et al., 2001). Sensitivity to SIC1 dosage was determined by transformation with pMT837 (GAL1-SIC1) or pMT767 (GAL1-SIC1^T33V) and plating on glucose medium or galactose medium. […]

[2] = tested on: cdc4Δ strain overexpressing SIC1; test: sensitivity to SIC1 dosage: GAL1-SIC1 overexpression in strains bearing CDC4 alleles; type: cell-based, yeast; details: galactose, 2 days at 30° C.; for gal Sic1T33V: GAL1-SIC1 T33V (partially stabilized Sic1); for gal Sic1T45A: GAL1-SIC1 T45A; for gal Sic1 wt: GAL1-SIC1 wild type
Outline: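 SIC1 dosage sensitivity: cdc4Δ strains carrying CDC4 mutant alleles (after plasmid shuffle) transformed with GAL1-SIC1 or GAL1-SIC1^T33V (also T45A), plated on glucose versus galactose medium for 2 days at 30 °C. Growth on galactose scored as tolerance of SIC1 overexpression.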

phospho-Sic1 isoforms [3] = target: T3, phospho-Sic1 isoforms (Saccharomyces cerevisiae, UniProt P38634); test: in vitro ubiquitination of phospho-Sic1 isoforms by wild type or mutant SCFCdc4 complex; type: biochemical, yeast; details: Cdc34, ubiquitin, ATP, 1 h at 30° C.
T3 construct: His6 (N); made in house; host or cells: bacteria (Sic1, Cdc4-GST-Skp1); insect cells (Cdc53-Rbx1)
T3 sequence (P38634 1-284): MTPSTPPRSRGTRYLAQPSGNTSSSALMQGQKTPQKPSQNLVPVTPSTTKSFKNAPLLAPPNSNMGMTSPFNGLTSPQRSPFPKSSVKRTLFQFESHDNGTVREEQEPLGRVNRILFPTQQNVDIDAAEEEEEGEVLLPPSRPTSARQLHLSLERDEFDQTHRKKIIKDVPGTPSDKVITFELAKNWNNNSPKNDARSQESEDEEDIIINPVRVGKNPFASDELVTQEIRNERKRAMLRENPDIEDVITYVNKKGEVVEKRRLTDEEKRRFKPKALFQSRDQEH

Molecule	Kd (Cdc4)	shuffle (cdc4Δ strain)	shuffle (cdc4Δ strain; listed as Trp 426)	shuffle (cdc4Δ strain; listed as Trp426Ala)	P-Sic1 pull down (phospho-Sic1)	P-Sic1 pull down (phospho-Sic1; listed as Trp 426)	P-Sic1 pull down (phospho-Sic1; listed as Trp426Ala)	Skp1 binding (Skp1)	Sic1 phospho-isoforms captured (number of phosphorylated sites) (phospho-Sic1 isoforms [1])	gal Sic1T33V [2]	gal Sic1T45A [2]	gal Sic1 wt [2]	shuffle (cdc4Δ strain; listed as V384N/W717N)	P-Sic1 pull down (phospho-Sic1; listed as V384N/W717N)	conversion of Sic1 phosphorylated on four or five sites to oligo-ubiquitinated species (phospho-Sic1 isoforms [3])	Sic1 phospho-isoforms captured (number of phosphorylated sites) (phospho-Sic1 isoforms [1]; listed as Wild type Cdc4)
Ac-GLL[pT]PPQSG-NH2 [CPD phosphopeptide]	1000 nM	–	–	–	–	–	–	–	–	–	–	–	–	–	–	–
B1	–	dead	abolished	unable	no bind	abolished	unable to bind	fully competent	–	–	–	–	–	–	–	–
B2	–	alive	–	–	bind	–	–	–	as few as four	dead	dead	alive	viable	fully competent	–	–
B3	–	alive	–	–	bind	–	–	–	–	alive	dead	alive	–	–	unable	six or more sites
